Our source for the percent of eluted protein < 80 kDa (monomeric) values is article PMC7835520.

What all share (test): SEC; cleared, microfiltered serum-containing supernatant of transfected Bosc23 cells; Superdex 200 10/300 GL in PBS at 4°C; fractions TCA precipitated and immunoblotted with α-Shh or α-StrepII antibodies; total eluted protein set to 100%, monomeric (< 80 kDa) versus multimeric (> 80 kDa)
The target in assay [1] is Shh^HA, Shh with an HA tag inserted into the C-terminal peptide (Mus musculus).
The target of assay [2] is Shh^Strep, Shh with a StrepII tag inserted into the C-terminal peptide (Mus musculus).
Assay [3] has as its target Sonic hedgehog (Shh), untagged (Mus musculus).
The target in assay [4] is ^HAShh^HA, Shh with HA tags in both terminal peptides (Mus musculus).

In assay [1], “Shh^HA, Shh with an HA tag inserted into the C-terminal peptide (ligand)” had a percent of eluted protein < 80 kDa (monomeric) of 65%.

In turn, “Shh^Strep, Shh with a StrepII tag inserted into the C-terminal peptide (ligand)” came in with a percent of eluted protein < 80 kDa (monomeric) in assay [2] of 80%.

The substance Sonic hedgehog (Shh), untagged (ligand) showed a percent of eluted protein < 80 kDa (monomeric) in assay [3] of 15%.

For the substance “^HAShh^HA, Shh with HA tags in both terminal peptides (ligand)”, in assay [4], the percent of eluted protein < 80 kDa (monomeric) is 56%.
